Key:
[1] = molecular target: Actin of the thin filament in human ventricular myocytes (human (endogenous in ventricular myocytes)) (UniProt P68032); experiment: autocorrelation function of fluctuations of fluorescence anisotropy (confocal, about 6 molecules); in situ, A-band of isolated EDC-cross-linked myocytes from failing human left ventricles, isometric contraction in contracting solution (5 mM ATP, 0.1 mM CaCl2, pH 7.5); 20 s records, time resolution 10 ms; three-state fit
[2] = molecular target: Actin of the thin filament in human ventricular myocytes (human (endogenous in ventricular myocytes)) (UniProt P68032); experiment: autocorrelation function of fluctuations of fluorescence anisotropy (confocal, about 6 molecules); in situ, A-band of isolated EDC-cross-linked myocytes from failing human right ventricles, isometric contraction in contracting solution (5 mM ATP, 0.1 mM CaCl2, pH 7.5); 20 s records, time resolution 10 ms; three-state fit

k (DISS) (rate of dissociation of the cross-bridge from the thin filament during contraction) [1]: 2.24 | k (DISS) (rate of dissociation of the cross-bridge from the thin filament during contraction) [2]: 2.36
Substance: Ventricular myosin cross-bridge carrying the exchanged fluorescent LC (from UniProt P12883 1-1935; P05976 1-194; P10916 1-166) (complex)
